This note sets out measurements from PMC10142772.

The target of this experiment is D. officinale MYB5 (DoMYB5), R2R3-MYB transcription factor (Dendrobium officinale).
Sequence of D. officinale MYB5 (DoMYB5), R2R3-MYB transcription factor (Dendrobium officinale) (main, as listed by the source): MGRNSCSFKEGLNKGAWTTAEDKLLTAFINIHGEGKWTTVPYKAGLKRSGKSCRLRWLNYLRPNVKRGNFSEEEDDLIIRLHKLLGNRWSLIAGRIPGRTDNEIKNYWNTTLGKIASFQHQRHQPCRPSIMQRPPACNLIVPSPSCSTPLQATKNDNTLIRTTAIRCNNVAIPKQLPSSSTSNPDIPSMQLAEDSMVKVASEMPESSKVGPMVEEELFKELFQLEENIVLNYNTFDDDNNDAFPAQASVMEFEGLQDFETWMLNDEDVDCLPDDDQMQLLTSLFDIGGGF

Substance “D. officinale bHLH24 (DobHLH24), bHLH transcription factor (natural protein)” registered a dual-luciferase assay in tobacco leaves: activity of the DoCHS promoter on co-expression of DoMYB5 and DobHLH24, against the control group (times higher than the control group) of 4.8; a dual-luciferase assay in tobacco leaves: activity of the DoDFR promoter on co-expression of DoMYB5 and DobHLH24, against the control group (times higher than the control group) of 2.5.
